Patent EP2594588A1

Target: ADM (agonist of the ADM-Bioassay, human or mouse not told)
Assay: cell-based or functional assay

Maximal inhibition of ADM bioactivity (ADM-Bioassay) (%): 0%
Substance: Non specific mouse IgG (antibody)
